# Experimental data as given in patent US20240174992A1 (PROMEGA, published 2024).
# How the values were obtained:
# [1] = biological target: T1, HaloTag[22-297](Q145H+P154R); experiment: apparent affinity from peptide titration of the large fragment in E. coli lysate, JF646 fluorescence complementation; signal approaches saturation
# T1 construct: also called LgHT variant
# HaloTag[22-297](M2F) = biological target: T2, HaloTag[22-297](M2F); experiment: apparent affinity from peptide titration (up to 1 mM) of the large fragment in E. coli lysate, JF646 fluorescence complementation; signal did not saturate
# T2 construct: also called LgHT (M2F variant); Large HaloTag
# T2 sequence (chain, as listed by the source): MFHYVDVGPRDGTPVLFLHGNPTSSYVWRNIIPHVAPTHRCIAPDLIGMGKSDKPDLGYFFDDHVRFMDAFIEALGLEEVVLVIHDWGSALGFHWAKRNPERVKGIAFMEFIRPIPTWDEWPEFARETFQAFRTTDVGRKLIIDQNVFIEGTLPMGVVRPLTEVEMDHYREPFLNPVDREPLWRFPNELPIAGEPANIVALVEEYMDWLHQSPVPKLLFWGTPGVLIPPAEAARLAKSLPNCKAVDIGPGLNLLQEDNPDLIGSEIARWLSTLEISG
# [2] = biological target: HaloTag[22-297](Q145H+P154R)-6×His; experiment: purified system, 80 nM large fragment, peptide titration, TMR ligand
# Chain of HaloTag[22-297](Q145H+P154R)-6×His (chain, as listed by the source Q145H P154R Q145H P154R): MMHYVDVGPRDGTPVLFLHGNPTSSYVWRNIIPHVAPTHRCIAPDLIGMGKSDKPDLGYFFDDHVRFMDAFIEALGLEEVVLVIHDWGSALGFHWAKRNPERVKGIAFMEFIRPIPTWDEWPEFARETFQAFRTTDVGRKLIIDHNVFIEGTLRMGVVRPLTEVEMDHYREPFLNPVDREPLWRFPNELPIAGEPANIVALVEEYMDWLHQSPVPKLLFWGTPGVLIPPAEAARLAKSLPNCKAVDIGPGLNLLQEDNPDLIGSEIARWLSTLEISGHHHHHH
# T1 sequence (chain, as listed by the source Q145H P154R Q145H P154R): as the sequence (chain, as listed by the source) above, with F2M, Q145H, P154R counted along it
binder,measurement,setting,value
EIGTGFPFDPHYVEVLG (also called HT(3-19); SmHT) [synthetic HaloTag[3-19] peptide],Kd,[1],~1 µM
same,Kd,HaloTag[22-297](M2F),> 100 µM
same,binding result,[2],binds
